The results in this text go back to publication PMC8371082, “En route to dynamic life processes by SNARE-mediated fusion of polymer and hybrid membranes” (Nature Communications, 2021).

In this test the target is T1, Syntaxin-1A (183-288) (Rattus norvegicus, UniProt P32851 183-288).
T1 construct: Syntaxin-1A, Rattus norvegicus, residues 183-288
The experiment in a line: complex assembly from purified proteins, isolated by ion-exchange chromatography; truncated syb-2, syntaxin-1A and SNAP-25a mixed at 1.5:1:1 molar ratio, incubated at 4 °C overnight, complex purified by ion-exchange chromatography in the presence of CHAPS. The following applies: both partners purified.

T1 sequence (P32851 183-288): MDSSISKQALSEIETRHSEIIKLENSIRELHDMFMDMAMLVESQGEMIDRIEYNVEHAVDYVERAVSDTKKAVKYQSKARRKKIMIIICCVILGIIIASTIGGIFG

B1: Truncated synaptobrevin-2 (49-96) (domain or fragment, Rattus norvegicus, UniProt P63045 49-96, looked up)
chain: NVDKVLERDQKLSELDDRADALQAGASQFETSAAKLKRKYWWKNLKMM
notes: Synaptobrevin-2 (VAMP2), Rattus norvegicus, residues 49-96; also called truncated syb-2; C-terminal syb fragment
With B1, the binding result is on record as “binds”.
